Experimental findings from publication PMC12722041, “The low complexity linker of DNAJB6b is key to its anti-amyloid function” (QRB Discovery, 2025) are described below.

The series concerns the molecule itself. Nature of the series: dynamic light scattering; fresh linker sample after dialysis from 4 M urea into 20 mM sodium phosphate, 0.2 mM EDTA, pH 8.0; 25 μM stock.

B1: DNAJB6b (76–186), the 110-residue low complexity linker of DNAJB6b (domain or fragment, UniProt O75190-2 76-186, looked up)
chain: GGGGGSHFDSPFEFGFTFRNPDDVFREFFGGRDPFSFDFFEDPFEDFFGNRRGPRGSRSRGTGSFFSAFSGFPSFGSGFSSFDTGFTSFGSLGHGGLTSFSSTSFGGSGMG
notes: also called JB6 linker; linker peptide
With B1, the binding result is reported as “binds”.
